Source: PMC6684798, “Structural basis for the target specificity of actin histidine methyltransferase SETD3” (Nature Communications, 2019)

Experiments:
SETD3 N255A [1] = target: T1, SETD3 N255A (Homo sapiens, UniProt Q86TU7, N256A); assay: MALDI-TOF analysis of K73(66–88) methylation by N255A (Fig. 3d); type: biochemical; conditions: pH 10.5, 37 °C, 3 μM N255A, 10 µM peptide, 40 µM SAM
T1 construct: GST (cleaved yes); made in house; host or cells: Escherichia coli BL21(DE3) CodonPlus
T1 sequence (Q86TU7 1-594 N256A): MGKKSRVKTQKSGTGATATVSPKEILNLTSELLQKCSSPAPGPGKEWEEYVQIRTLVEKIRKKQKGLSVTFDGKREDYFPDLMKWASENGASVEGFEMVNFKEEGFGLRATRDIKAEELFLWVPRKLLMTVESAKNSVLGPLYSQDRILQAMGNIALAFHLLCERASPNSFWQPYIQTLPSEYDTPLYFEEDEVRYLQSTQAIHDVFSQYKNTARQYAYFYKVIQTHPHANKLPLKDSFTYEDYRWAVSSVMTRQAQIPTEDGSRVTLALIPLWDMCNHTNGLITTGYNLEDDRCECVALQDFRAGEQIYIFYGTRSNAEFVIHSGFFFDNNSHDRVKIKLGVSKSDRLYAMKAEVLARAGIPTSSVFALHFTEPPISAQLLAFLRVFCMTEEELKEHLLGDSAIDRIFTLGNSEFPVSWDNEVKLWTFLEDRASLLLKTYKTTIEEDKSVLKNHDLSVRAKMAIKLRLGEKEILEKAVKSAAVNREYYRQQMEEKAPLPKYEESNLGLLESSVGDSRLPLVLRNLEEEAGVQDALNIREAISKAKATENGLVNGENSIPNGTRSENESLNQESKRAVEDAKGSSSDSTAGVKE
Method: Fig. 3 Kinetics of SETD3 on H73 and K73 peptides. a Comparison of activities of three variants (WT, N255A, and N255V) on H73(66–80) peptide. The assays were performed at room temperature (~22 °C) and pH 8.0 using [WT] = 0.18 μM, [N255A] = 0.18 μM, and [N255V] = 0.72 μM. b Comparison of SETD3 WT activities on two K73 peptides (residues 66–80 and 66–88). The assays were performed at 37 °C and pH 10.5 using [WT] = 3 and 15 μM, respectively, for the long and short peptides. c Comparison of activities of three variants (N255A, N255V, and WT) on K73(66–88) peptide. The assays were performed at 37 °C and pH 10.5 using [N255A] = 90 nM, [N255V] = 0.72 μM and [WT] = 4 μM. Data represent the mean ± SD of N number of independent determinations (N = 3 for the WT and N = 2 for the mutants) performed in duplicate. Source data are provided as a Source Data file. d, e Mass spectrometry analysis of K73(66–88) methylation kinetic showing representative spectra at various time points for N255A variant (panel d) and SETD3 WT enzyme (panel e). The assays were performed at 37 °C and pH 10.5 using 3 μM for both N255A and WT. f In vitro methylation reactions with SETD3, indicated full-length actin proteins, and radiolabeled methyl donor (^3H-SAM). Right, Reactions were resolved by SDS–PAGE and activity was visualized by autoradiography. […] The first column head is 'SETD3', and the substrate peptide is printed only on the plot axis. / Panel b: the first column head is 'SETD3 (WT)', and the rows are K73 peptide substrates.
(§1) Recombinant human SETD3 (pXC2003) was expressed as a GST-fusion[22] in Escherichia coli BL21(DE3) CodonPlus^TM cells (Stratagene). […]
Actin K73 peptide (residues 66–88) was used as a substrate for SETD3 (Fig. 3d, e). […] We note that samples diluted into a 0.1% (v/v) TFA solution in water could not be detected by MALDI-TOF, thus the acetonitrile additive is necessary.

SETD3 N255A [2] = target: T1, SETD3 N255A; assay: Steady-state kinetics of SETD3 N255A on K73(66–88) (Fig. 3c; pH 10.5, 37 °C, [N255A] = 90 nM, 40 µM SAM); type: biochemical; conditions: relative to WT SETD3, Fig. 3c
Method: (§2) Fig. 3 Kinetics of SETD3 on H73 and K73 peptides. a Comparison of activities of three variants (WT, N255A, and N255V) on H73(66–80) peptide. The assays were performed at room temperature (~22 °C) and pH 8.0 using [WT] = 0.18 μM, [N255A] = 0.18 μM, and [N255V] = 0.72 μM. b Comparison of SETD3 WT activities on two K73 peptides (residues 66–80 and 66–88). The assays were performed at 37 °C and pH 10.5 using [WT] = 3 and 15 μM, respectively, for the long and short peptides. c Comparison of activities of three variants (N255A, N255V, and WT) on K73(66–88) peptide. The assays were performed at 37 °C and pH 10.5 using [N255A] = 90 nM, [N255V] = 0.72 μM and [WT] = 4 μM. Data represent the mean ± SD of N number of independent determinations (N = 3 for the WT and N = 2 for the mutants) performed in duplicate. […]
as §1
(§3) A reaction mixture contained 20 mM Tris/HCl (pH 8.0) or 20 mM glycine/NaOH (pH 10.5), 50 mM NaCl, 0.1 mg/ml BSA, 1 mM DTT, 0.18–15 µM SETD3 (as indicated in Fig. 3), 40 µM SAM and varying concentration of peptides. […] The dependence of the velocity of product formation per enzyme on substrate concentration was analyzed according to the Michaelis–Menten equation.

[3] = tested on: SETD3 variants (WT, N255A, N255V); assay: Comparison of activities of SETD3 variants (Fig. 3a, c); type: biochemical, human; conditions: Fig. 3c, K73(66–88), pH 10.5, 37 °C
Method: as §2, §1, §3

K73(66–88): K73-containing actin H73K peptide, residues 66–88 (TLKYPIEKGIVTNWDDMEKIWHH; UniProt P60709 66-88, looked up, variant H73K)
K73 methylation product (SETD3 N255A [1]; 10 min): monomethyl lysine | K73 methylation product (SETD3 N255A [1]; 30 min): dimethyl | K73 methylation product (SETD3 N255A [1]; 1 h): complete conversion of unmodified substrate to trimethyl lysine | activity of N255A on K73 peptide (SETD3 N255A [2]): significantly enhanced activity | order of activity of SETD3 variants on K73 [3]: N255A≫N255V>WT
